{"source": "the Human Domainome abundance scans (Beltran et al. 2025)", "parents": {"B1": {"name": "Zinc finger MYM-type protein 6, residues 427 to 504; numbered along this chain, O95789 (parent)", "chain": "KLKCQHCNHLFATKPELLFYKGKMFLFCGKNCSDEYKKKNKVVAMCDYCKLQKIIKETVRFSGVDKPFCSEVCKFLSA"}}, "note": "± gives the uncertainty stated by the source.", "data": [{"variants_of": "B1", "assay": "abundance fitness (aPCA) (normalised: wild type 0, dead -1); higher = more abundant; growth selection in yeast, the domain comes from the species named", "details": "Homo sapiens", "values": [{"variant": "KLKCQHCNHLFATKPELLFYKGKMFLFCGKNCSDEYKKKNKVVAMCDYCKLQKIIKETVRFSGVAKPFCSEVCKFLSA", "note": "[D65A]", "abundance fitness": "-0.226 ± 0.12"}, {"variant": "KLKCQHCYHLFATKPELLFYKGKMFLFCGKNCSDEYKKKNKVVAMCDYCKLQKIIKETVRFSGVDKPFCSEVCKFLSA", "note": "[N8Y]", "abundance fitness": "-0.264 ± 0.071"}, {"variant": "KLKCQHCNHLFATKPKLLFYKGKMFLFCGKNCSDEYKKKNKVVAMCDYCKLQKIIKETVRFSGVDKPFCSEVCKFLSA", "note": "[E16K]", "abundance fitness": "0.002 ± 0.032"}, {"variant": "KLKCQHCNHLFATKPWLLFYKGKMFLFCGKNCSDEYKKKNKVVAMCDYCKLQKIIKETVRFSGVDKPFCSEVCKFLSA", "note": "[E16W]", "abundance fitness": "-0.13 ± 0.031"}, {"variant": "KLKCQHCNHLFATKPELLFYKGMMFLFCGKNCSDEYKKKNKVVAMCDYCKLQKIIKETVRFSGVDKPFCSEVCKFLSA", "note": "[K23M]", "abundance fitness": "-0.041 ± 0.058"}, {"variant": "KLKCQHCNHLFATKPELLFYKGNMFLFCGKNCSDEYKKKNKVVAMCDYCKLQKIIKETVRFSGVDKPFCSEVCKFLSA", "note": "[K23N]", "abundance fitness": "-0.001 ± 0.096"}, {"variant": "KLKCQHCNHLFATKPELLFYKGKMFLFCGKPCSDEYKKKNKVVAMCDYCKLQKIIKETVRFSGVDKPFCSEVCKFLSA", "note": "[N31P]", "abundance fitness": "-0.018 ± 0.041"}, {"variant": "KLKCQHCNHLFATKPELLFYKGKMFLFCGKNCSDEYKKKNKVVAMCDYCKLQKIIKETVRFSGVDKPFCSEVCKFTSA", "note": "[L76T]", "abundance fitness": "-0.109 ± 0.28"}, {"variant": "KLKCQHCNHLFCTKPELLFYKGKMFLFCGKNCSDEYKKKNKVVAMCDYCKLQKIIKETVRFSGVDKPFCSEVCKFLSA", "note": "[A12C]", "abundance fitness": "-0.096 ± 0.05"}, {"variant": "KLKCQHCNHLFATKPELLFYKGKMFLFCGKNCSDEYKKKNKVVAMCDYCKLQKIIKETVRFSGVDKQFCSEVCKFLSA", "note": "[P67Q]", "abundance fitness": "0.296 ± 0.15"}, {"variant": "KLKCQHCNHLFATKPELLFYKGKMFLFCGKNCSDEYKKKNKVVAMCDYCKLQKIIKETVRFSGVDKVFCSEVCKFLSA", "note": "[P67V]", "abundance fitness": "0.27 ± 0.12"}, {"variant": "KLKCQHCNHLFATKPELLFYKGKMFLFCGKNCSDEYKKKNKVVAMCDYCKLQKIIKETVRFSTVDKPFCSEVCKFLSA", "note": "[G63T]", "abundance fitness": "-0.226 ± 0.16"}, {"variant": "KLKCQHCNHLFATKPELLFYKGKMFLFCGKNCSDEYKKKNKVVAMCDYCKLQKIIKETVRFSCVDKPFCSEVCKFLSA", "note": "[G63C]", "abundance fitness": "-0.709 ± 0.23"}, {"variant": "KLKCQHCNHLFATKPELLFYKGKMFLFCGKNCTDEYKKKNKVVAMCDYCKLQKIIKETVRFSGVDKPFCSEVCKFLSA", "note": "[S33T]", "abundance fitness": "-0.127 ± 0.056"}, {"variant": "KLKCQHCNHLFATKPELLFYKGKMFLFCGKNCSDEYKKKNKVVAMCDYCKLQKIIKETVRFSGVDKPFCSEVDKFLSA", "note": "[C73D]", "abundance fitness": "-0.505 ± 0.37"}, {"variant": "KLKCQHCNHLFATKPELLFYKGKMFLFCGKNCSDEYKKKNKVVAMCDYCKLQKIIKETVRFSGVDKPFCSEVWKFLSA", "note": "[C73W]", "abundance fitness": "-0.751 ± 0.21"}, {"variant": "KLKCQHCNHLFATKPELLFYKGKMFLFCGKNCSAEYKKKNKVVAMCDYCKLQKIIKETVRFSGVDKPFCSEVCKFLSA", "note": "[D34A]", "abundance fitness": "-0.037 ± 0.029"}, {"variant": "KLKCQHCNHLFATKPELLFYKGKMFLFCGKNCSNEYKKKNKVVAMCDYCKLQKIIKETVRFSGVDKPFCSEVCKFLSA", "note": "[D34N]", "abundance fitness": "-0.527 ± 0.28"}, {"variant": "KLKCQHCNHLFATKPELLFYKGKMFLFCGKNCSDEYKKGNKVVAMCDYCKLQKIIKETVRFSGVDKPFCSEVCKFLSA", "note": "[K39G]", "abundance fitness": "0.005 ± 0.027"}, {"variant": "KLKCQHCNHLFATKPELLFYKGKMFLFCHKNCSDEYKKKNKVVAMCDYCKLQKIIKETVRFSGVDKPFCSEVCKFLSA", "note": "[G29H]", "abundance fitness": "-0.333 ± 0.21"}, {"variant": "KLKCQHCNHLFATKPELLFYKGKMFLFCGKNCSDMYKKKNKVVAMCDYCKLQKIIKETVRFSGVDKPFCSEVCKFLSA", "note": "[E35M]", "abundance fitness": "-0.054 ± 0.033"}, {"variant": "KLKCQHCNHLFATKPELLFYKGKMFLVCGKNCSDEYKKKNKVVAMCDYCKLQKIIKETVRFSGVDKPFCSEVCKFLSA", "note": "[F27V]", "abundance fitness": "-0.161 ± 0.036"}, {"variant": "KLKCQHCNHLFATKPELLFYKGKMFLRCGKNCSDEYKKKNKVVAMCDYCKLQKIIKETVRFSGVDKPFCSEVCKFLSA", "note": "[F27R]", "abundance fitness": "-0.805 ± 0.04"}, {"variant": "KMKCQHCNHLFATKPELLFYKGKMFLFCGKNCSDEYKKKNKVVAMCDYCKLQKIIKETVRFSGVDKPFCSEVCKFLSA", "note": "[L2M]", "abundance fitness": "0.048 ± 0.084"}, {"variant": "KPKCQHCNHLFATKPELLFYKGKMFLFCGKNCSDEYKKKNKVVAMCDYCKLQKIIKETVRFSGVDKPFCSEVCKFLSA", "note": "[L2P]", "abundance fitness": "-0.068 ± 0.052"}, {"variant": "KLKCQHCNHLFATKPELLFYKGKMFLFCGKNCSDEYKKKNKVVAMCLYCKLQKIIKETVRFSGVDKPFCSEVCKFLSA", "note": "[D47L]", "abundance fitness": "0.177 ± 0.066"}, {"variant": "KLKCQHCNHLFATKLELLFYKGKMFLFCGKNCSDEYKKKNKVVAMCDYCKLQKIIKETVRFSGVDKPFCSEVCKFLSA", "note": "[P15L]", "abundance fitness": "-0.483 ± 0.05"}, {"variant": "KLKCQHCNHLFATKPELLFYKGKMFLFCGKNCSDEYKKKNKVVAMCDYCKQQKIIKETVRFSGVDKPFCSEVCKFLSA", "note": "[L51Q]", "abundance fitness": "0.529 ± 0.12"}, {"variant": "KLKCQHCNHLFATKPELLFYKGKMFLFCGKNCSDEYKKKNKVVAMCDYCKLQKIIKETVRFSGVDKPFTSEVCKFLSA", "note": "[C69T]", "abundance fitness": "-0.902 ± 0.24"}, {"variant": "KLKCQHCNHLFATKPELLFYKGKMFLFCGKNCSDEYKKKNKVVMMCDYCKLQKIIKETVRFSGVDKPFCSEVCKFLSA", "note": "[A44M]", "abundance fitness": "0.39 ± 0.28"}, {"variant": "KLKCQHCNHLFATSPELLFYKGKMFLFCGKNCSDEYKKKNKVVAMCDYCKLQKIIKETVRFSGVDKPFCSEVCKFLSA", "note": "[K14S]", "abundance fitness": "-0.085 ± 0.035"}, {"variant": "KLKCQHCNHPFATKPELLFYKGKMFLFCGKNCSDEYKKKNKVVAMCDYCKLQKIIKETVRFSGVDKPFCSEVCKFLSA", "note": "[L10P]", "abundance fitness": "0.034 ± 0.046"}, {"variant": "KLKCQHCNHLFATKPELLFYKGKMFLFCGKNCSDEYKKKNKVVASCDYCKLQKIIKETVRFSGVDKPFCSEVCKFLSA", "note": "[M45S]", "abundance fitness": "-0.073 ± 0.094"}, {"variant": "KLKCQHCNHLFATKPELLFYKGKMFLFCGKNCSDEYKKKNKVVAMCDYCKLQKIIRETVRFSGVDKPFCSEVCKFLSA", "note": "[K56R]", "abundance fitness": "-0.423 ± 0.089"}, {"variant": "KLKCQHCNHLFATKPELLFYKGKMFLFCGKNCSDEYKKKNKVVAMCDYCKLRKIIKETVRFSGVDKPFCSEVCKFLSA", "note": "[Q52R]", "abundance fitness": "0.061 ± 0.071"}, {"variant": "KLKCQHCNHLFATKPELLFYKFKMFLFCGKNCSDEYKKKNKVVAMCDYCKLQKIIKETVRFSGVDKPFCSEVCKFLSA", "note": "[G22F]", "abundance fitness": "-0.254 ± 0.36"}, {"variant": "KLKCQHCNHLFATKPELLFYKGKMFLFCGKNCSDEYKKKVKVVAMCDYCKLQKIIKETVRFSGVDKPFCSEVCKFLSA", "note": "[N40V]", "abundance fitness": "-0.03 ± 0.051"}]}]}
